In patent US20250327097A1, “ORGANISMS PRODUCING LESS CROTONIC ACID” (Global Bioenergies, priority 2021, published 2025):

B1: I283T-P284D-i284aP-N287P-S322T-Q365I-N388M-E421V-C430N-L432F-L434W-S436N-H461T-dG462-A463T (protein)
chain: MFLKSLREQINLLKRQGDLRIINRPVDSYLEAAAIIRRSTETKAPVPLMTNIKGYPGCSIVGGLAALSSNPEYPLSRVAMSLGLSTTASAQSIVQYLIDGLKKTPYLPVEIDSNSAPCKQNILRGEDASLAHFPIPQVHQHDGNRYVNTWGVFIVESPDGQWCNWSIQRVQYLNDRQMIALVFPSQHISDIWEEWVKIGKPMPYALVQGCEPIVPYIAGLPLLERNVNEAEYIGALYGKGIEVVKCETHDLRVPASSEVVIEGYFAITREGVEGPFGEFAGYTDNEPSLQPILSITAISWQDDPIWPVVAEGKPVDEYHTCTGIGDAAAIQNVLLTANLPVSFVWVPLYSACHLMIVSINRHWRITHPDLTSEQLTKKVGDVIHQTRMSIKLPKIVVLDDDVDPADTESLLWALATRIHPVRKRYFYESNIFPWLNCYSEEERHNRKGKRVIIDALLPENTGTISSFDYAYPDDIKQRVLMHWETDFSHD
B2: I283T-P284D-i284aP-N287P-S322T-Q385S-N388M-E421V-C430N-L432F-L434W-S436N-H461T-dG462-A463T (protein)
chain: MFLKSLREQINLLKRQGDLRIINRPVDSYLEAAAIIRRSTETKAPVPLMTNIKGYPGCSIVGGLAALSSNPEYPLSRVAMSLGLSTTASAQSIVQYLIDGLKKTPYLPVEIDSNSAPCKQNILRGEDASLAHFPIPQVHQHDGNRYVNTWGVFIVESPDGQWCNWSIQRVQYLNDRQMIALVFPSQHISDIWEEWVKIGKPMPYALVQGCEPIVPYIAGLPLLERNVNEAEYIGALYGKGIEVVKCETHDLRVPASSEVVIEGYFAITREGVEGPFGEFAGYTDNEPSLQPILSITAISWQDDPIWPVVAEGKPVDEYHTCTGIGDAAAIQNVLLTANLPVSFVWVPLYSACHLMIVSINRHWRQTHPDLTSEQLTKKVGDVIHSTRMSIKLPKIVVLDDDVDPADTESLLWALATRIHPVRKRYFYESNIFPWLNCYSEEERHNRKGKRVIIDALLPENTGTISSFDYAYPDDIKQRVLMHWETDFSHD
B3: I283T-P284D-i284aP-N287P-S322T-Q385G-N388M-E421V-C430N-L432F-L434W-S436N-H461T-dG462-A463T (protein)
chain: MFLKSLREQINLLKRQGDLRIINRPVDSYLEAAAIIRRSTETKAPVPLMTNIKGYPGCSIVGGLAALSSNPEYPLSRVAMSLGLSTTASAQSIVQYLIDGLKKTPYLPVEIDSNSAPCKQNILRGEDASLAHFPIPQVHQHDGNRYVNTWGVFIVESPDGQWCNWSIQRVQYLNDRQMIALVFPSQHISDIWEEWVKIGKPMPYALVQGCEPIVPYIAGLPLLERNVNEAEYIGALYGKGIEVVKCETHDLRVPASSEVVIEGYFAITREGVEGPFGEFAGYTDNEPSLQPILSITAISWQDDPIWPVVAEGKPVDEYHTCTGIGDAAAIQNVLLTANLPVSFVWVPLYSACHLMIVSINRHWRQTHPDLTSEQLTKKVGDVIHGTRMSIKLPKIVVLDDDVDPADTESLLWALATRIHPVRKRYFYESNIFPWLNCYSEEERHNRKGKRVIIDALLPENTGTISSFDYAYPDDIKQRVLMHWETDFSHD
B4: I283T-P284D-i284aP-N287P-S322T-Q385L-N388M-E421V-C430N-L432F-L434W-S436N-H461T-dG462-A463T (protein)
chain: MFLKSLREQINLLKRQGDLRIINRPVDSYLEAAAIIRRSTETKAPVPLMTNIKGYPGCSIVGGLAALSSNPEYPLSRVAMSLGLSTTASAQSIVQYLIDGLKKTPYLPVEIDSNSAPCKQNILRGEDASLAHFPIPQVHQHDGNRYVNTWGVFIVESPDGQWCNWSIQRVQYLNDRQMIALVFPSQHISDIWEEWVKIGKPMPYALVQGCEPIVPYIAGLPLLERNVNEAEYIGALYGKGIEVVKCETHDLRVPASSEVVIEGYFAITREGVEGPFGEFAGYTDNEPSLQPILSITAISWQDDPIWPVVAEGKPVDEYHTCTGIGDAAAIQNVLLTANLPVSFVWVPLYSACHLMIVSINRHWRQTHPDLTSEQLTKKVGDVIHLTRMSIKLPKIVVLDDDVDPADTESLLWALATRIHPVRKRYFYESNIFPWLNCYSEEERHNRKGKRVIIDALLPENTGTISSFDYAYPDDIKQRVLMHWETDFSHD
B5: I283T-N285P-N287T-Q290E-S322T-N388M-S389H-K394R-C430A-i430aG-L432F-L434W-S436N-I453L-dG462 (protein)
chain: MFLKSLREQINLLKRQGDLRIINRPVDSYLEAAAIIRRSTETKAPVPLMTNIKGYPGCSIVGGLAALSSNPEYPLSRVAMSLGLSTTASAQSIVQYLIDGLKKTPYLPVEIDSNSAPCKQNILRGEDASLAHFPIPQVHQHDGNRYVNTWGVFIVESPDGQWCNWSIQRVQYLNDRQMIALVFPSQHISDIWEEWVKIGKPMPYALVQGCEPIVPYIAGLPLLERNVNEAEYIGALYGKGIEVVKCETHDLRVPASSEVVIEGYFAITREGVEGPFGEFAGYTPPETSLEPILSITAISWQDDPIWPVVAEGKPVDEYHTCTGIGDAAAIQNVLLTANLPVSFVWVPLYSACHLMIVSINRHWRQTHPDLTSEQLTKKVGDVIHQTRMHIKLPRIVVLDDDVDPADTESLLWALATRIHPERKRYFYESAIFPWLNCYSEEERHNRKGKRVILDALLPENHGAISSFDYAYPDDIKQRVLMHWETDFSHD
B6: E224A-I283T-N285P-N287T-Q290E-S322T-N388M-S389H-K394R-C430A-i430aG-L432F-L434W-S436N-dG462 (protein)
chain: MFLKSLREQINLLKRQGDLRIINRPVDSYLEAAAIIRRSTETKAPVPLMTNIKGYPGCSIVGGLAALSSNPEYPLSRVAMSLGLSTTASAQSIVQYLIDGLKKTPYLPVEIDSNSAPCKQNILRGEDASLAHFPIPQVHQHDGNRYVNTWGVFIVESPDGQWCNWSIQRVQYLNDRQMIALVFPSQHISDIWEEWVKIGKPMPYALVQGCEPIVPYIAGLPLLARNVNEAEYIGALYGKGIEVVKCETHDLRVPASSEVVIEGYFAITREGVEGPFGEFAGYTPPETSLEPILSITAISWQDDPIWPVVAEGKPVDEYHTCTGIGDAAAIQNVLLTANLPVSFVWVPLYSACHLMIVSINRHWRQTHPDLTSEQLTKKVGDVIHQTRMHIKLPRIVVLDDDVDPADTESLLWALATRIHPERKRYFYESAIFPWLNCYSEEERHNRKGKRVIIDALLPENHGAISSFDYAYPDDIKQRVLMHWETDFSHD
B7: E224P-I283T-N285P-N287T-Q290E-S322T-N388M-S389H-K394R-C430A-i430aG-L432F-L434W-S436N-dG462 (protein)
chain: MFLKSLREQINLLKRQGDLRIINRPVDSYLEAAAIIRRSTETKAPVPLMTNIKGYPGCSIVGGLAALSSNPEYPLSRVAMSLGLSTTASAQSIVQYLIDGLKKTPYLPVEIDSNSAPCKQNILRGEDASLAHFPIPQVHQHDGNRYVNTWGVFIVESPDGQWCNWSIQRVQYLNDRQMIALVFPSQHISDIWEEWVKIGKPMPYALVQGCEPIVPYIAGLPLLPRNVNEAEYIGALYGKGIEVVKCETHDLRVPASSEVVIEGYFAITREGVEGPFGEFAGYTPPETSLEPILSITAISWQDDPIWPVVAEGKPVDEYHTCTGIGDAAAIQNVLLTANLPVSFVWVPLYSACHLMIVSINRHWRQTHPDLTSEQLTKKVGDVIHQTRMHIKLPRIVVLDDDVDPADTESLLWALATRIHPERKRYFYESAIFPWLNCYSEEERHNRKGKRVIIDALLPENHGAISSFDYAYPDDIKQRVLMHWETDFSHD

Each molecule was assayed on 3-methylcrotonic acid.
Assay type: biochemical, Yersinia frederiksenii
Design: key: “+” representing a low increase in activity; “++++” representing a high increase in activity
For B1, the “Activity relative to WT” value was “++++”. With B2 the “Activity relative to WT” value was “++++”. For B3, the “Activity relative to WT” value was “++++”. In the case of B4, the “Activity relative to WT” value is reported as “++++”. B5 was tested, and the “Activity relative to WT” value was “++++”. For B6, the “Activity relative to WT” value was “++++”. In the case of B7, the “Activity relative to WT” value is reported as “++++”.
